Data from a protein production outcome set (Wang et al. 2014).

Assay: label from the status in PepcDB records

Row | Sequence | protein production
1 | MTLELLQAQAQNCTACRLMEGRTRVVFGEGNPDAKLMIVGEGPGEEEDKTGRPFVGKAGQLLNRILEAAGIPREEVYITNIVKCRPPQNRAPLPDEAKICTDKWLLKQIELIAPQIIVPLGAVAAEFFLGEKVSITKVRGKWYEWHGIKVFPMFHPAYLLRNPSRAPGSPKHLTWLDIQEVKRALDALPPKERRPVKAVSQEPLF | not failed
2 | MKFFSVFILAILSILCMPLIASTTNYDETLTKIETLQHSDLPAAINLIKTIESEFGAMSRLQQGRVLLFKGAASIYSGQYQTAIELLGQAEALLKDSEMLFSAYSYEATAYIALRHFNDAFIAMGKSLGLIERIEDTNLKRASYLRLASLYSAMGISEEVATYATKALALASESDVKDICGARLYLSVHQLEIASYAQAFDEFKSTRSYCESSGYPLIANIALKGMGESSLRLNEPQLAISYLLDSLKGYESFNFELEINSVHELLSEAYLLLQDSTKAELHAQYVMNLVDDSSNTELKHGASGVLAKIYAQKQQFEQAYEYSRKEQHYNQLIFDESRMKTLAYQAAKFNADEQAREINLLNKERELYIAQQMVKEREYTNMLMFITILVGGLFFLAILLVVGNLQKRRFMRMAKMDALTGVLNRGAGQDLGENMFVQAAARGGDYCVILFDLDHFKRINDSYGHGTGDWALKKVVEVLKPHIRNGDVFARIGGEEFALFLPYANEAKGLDVAEQCRSRIEAIDTHLSGHKFTITASFGVSGMTKDDLSLDPLLHRADMALYAAKSNGRNCVSCYQDALMCDKRVTNLTSELARQP | failed
3 | MIGWTLGQYFFIRYLKMTCYFLGGIFVLALLIDFTENSGRLSSLPRYTAKDAFLISVLRIPFIMQQLIPFIALFSAMAMLISLNRKSELVVTRSIGISAWQFLMPACFGAFLFGLFSILLVNPLAAWGFSQAERMMTEWRSKNNNVLTSLHNTRILWLTQRTHSGRTTIGAKSITDQGLSLIDATFVQYNDNATIKNWINSRKATLINGAWLLTDGTIYKIGHPPEKFSELQIQTTLKPEFLTERLVNPATIPFYQLPTKIMIARSFGYSANNFDMYLQSLIALPALLIAMTLIAAVVSLNFTRFGQSKILILGGVIAGFSLYVISILVQAFGNAGYIPPIIAAWTPVFIALFLGISFLLHKEDG | failed
4 | PEAERSTISLTRLHATIQNAPGVLGLVCTIIGEAGGNIVNLRMHHRQSDFFDTDIDVEVRDAKHLTNIQAALRACPSVETVDRTR | failed
5 | MWLMSHDMLAIIWFGLWGVIWTVYFILDGYALGNGMIFPFVTKDRQERNQLQEAIGPFWGGNEVWLITAGGATFAAFPVTYANMFSYLYTPLFLVLLALFARAAGLEFMHKDDSPIWQKTCKWAFAIGSFLIAFLFGVTFANLYYGLQIGKNGYEGNLLSLLNHYGILGGLFFTAIFVVSGALWVMIKTTGEVSDRAYKIARPFSMAAAIILAIFYVATANRTNLFQNFTEYPVLFILPVLAMLMSVLALIMVYKHKIGLAFTFVCLTIAMFMTTGFAGMFPRMLPSRINDAYSTTLYNAAGSQLNLKIMFFVAMVMVPIVIGYQLWSYSIFKNKIHKDSAKGYH | failed
6 | MKILLFICGEGLGHTGRCLALGKEFLAAGHEVNFGAYGYSKGLVQKTGYSAYEIPSEIKLAGEAGTFDIRKSIKETLNNLSPSGFRKILRLIEKLDPDVVLSDGYYTGILAAQKRKVPVYFIGHQFNMEEFFWKKGLFAGIAGIFVKRFYNYVFSSVDGIIVPDYPLPYSVNRKNFTISRAVNDNIFFSGPLIRCRYQEAGEKAFKRPNVLSTIGAFGYRAAVFRNVLEAAKLDPSIYYTFISGPEIDPEQFSKVPENVEFTGFTENPFPYYKGSDLVITAGGHGTIMESLAFGLPILSFPDEKHAEQENNASVLEEAGYGKRMSYLTPPEVILACIREIFEDENYSKKTRRLMELAEVLDGPAAVRKFLEEKHRGLEHHHHHH | failed
7 | MNLIKTCGLCLLLSVALSGCVTAPTPPESDPQAEQAVLEVSFSEAVKAMKQGNFTEARTVFEQLARNYPDKAGPMANLGIIAFREGDADGAKEWFERARAVNPEHVQALNHLGVIARNAGEFDEAERYYRAALAADPDYAPAILNLAFLLDIYLGNPADAIELYERYQSAASEPHPRLEDWIFDAKNRI | failed
8 | MPSLNQIFFGPPGTGKTYATVEATLQILDQPFLAKNAGSRSALKARFDELLAAGDVRFVTFHQSFSYEDFVEGLRATTDEQGQIRYEVVSGVFRSLCESVATELSGKYRAFKVGDRYGTGYKVTRATPDVVEIEKPQGKHLPIGMSLLNTLASYVDAGTFTIEELGNGRWDKKVPGSVLDPFLVNGYKNFLPSMVEHMLGKNEEGLFEPAPVQHSDAKVLIIDEINRGNVSRIFGELITLIEPSKRAGADEALEVTLPYSKERFSIPGNIHLIGTMNTADRSLAALDIALRRRFTFIEVPPNPELLDEVEVDGIAIDELLSLMNQRIAALLDRDHCLGHAYFMPLKDEPTLERLEGIFREQILPLLQEYFFEDWQRIQWVLNDQRKAPENSFLIQLSQDLIALFGDTVTVGQSNERWELNLPAFQKIESYLGVIDHNLKVGAPLEAKNVRTDGIDIRQSADGCIDVYRGGQHIKPTKPLLRELASKHGISSTSASGSELNTRSLGRKIIKFLSEQQG | failed
9 | MTKPMIQIALDQTNLTDAVAVASNVASYVDVIEVGTILAFAEGMKAVSTLRHNHPNHILVCDMKTTDGGAILSRMAFEAGADWITVSAAAHIATIAACKKVADELNGEIQIEIYGNWTMQDAKAWVDLGITQAIYHRSRDAELAGIGWTTDDLDKMRQLSALGIELSITGGIVPEDIYLFEGIKTKTFIAGRALAGAEGQQTAAALREQIDRFWP | not failed
10 | MAHLLEKTRKITSILKRSEEQLQDELPYNAITRQLADIIHCNACIINSKGRLLGYFMRYKTNTDRVEQFFQTKIFPDDYVQGANMIYETEANLPVEHDMSIFPIESRDDFPDGLTTIAPIHVSGIRLGSLIIWRNDKKFEDEDLVLVEIASTVVGIQLLNFQREEDEKNIRRRTAVTMAVNTLSYSELRAVSAILGELNGNEGKLTASVIADRIGITRSVIVNALRKLESAGIIESRSLGMKGTYLKVLISDIFEEVKKRDY | failed
11 | MMLRRLALSAATGLMLALPALAETVSDFRLPNGLEVVVIEDHRAPVVTHMVWYRVGAADEPPGHSGIAHFLEHLMFKGTDEMSAGEFSATVEAQGGDDNAFTSWDYTAYFQRVAADRLDLMMKMEADRMRDLQMTEEDVRTERQVVLEERSQRTDSDPGAVFSEQSRAAAYLNHPYGIPIIGWRHEIEQLGREDAFSFYRTYYAPNNAILVVAGDVDPAEVRRMAEEHYGALEPTPNLPERLRPQEPPQLAERRLTFSDPRVAQPYVSRSYLAATRETGAQEKAAALTILAELLGGSPTTSLLSRELQFGPEPKAVWAQAYYDGGGLDSGTFGLAVVPAAGVSLQEAEDAMDAVVARFLKEGPDAEDFERIKTQLGAQDIYSRDNVDGLARRYGAALTTGLTVADVQAWPEVLQAVTPDEVMAAAREVFDRRRAVTGWLMQEDEEKSQ | failed
12 | MTITNSKAEAWELIGNQFWTIGRVAARPSDRENDIFLENIVPGSTVAVIGASTRFLIEKALERGASVTVFDFSQRMCDDLAEALADRCVTIDLLDITAEIPKELAGHFDFVLNDRLINRFTTEEARRACLGMLSLVGSGTVRASVKLGFYDIDLKLIEYGEQSGTLAKFFDPSDKTFHFREAGDVLDRALVPHGLIDKPTLLEWYRRRGKETRFDDEDVRALLSHDVVNARGYVTLEKAVELPDAPNTMLYQFSRRAG | not failed
13 | MRGLSLSPVVLPEVRREAGVELRKARLEDVDAIYWLIRYWAEKGLMLVRSHSHLYENIRDFWVLEDEDGQIVGTVALHVLWRDLAEIRGLAVHPTRQGQGLGRWLVLGAEREARDLGLPRVFAWTLQVNFFRALGYRVTSR | failed
14 | MGLSSLPGPSEGMLCVILVNTALSISIVKGIVRSFLGIVGISLSPSSSSPSSVTVSSENSSTSESFDFRVCQPESYLEEFRNRTPTLRFESLCRCKKQADNECSVCLSKFQGDSEINKLKCGHLFHKTCLEKWIDYWNITCPLCRTPLVVVPEDHQLSSNVW | failed
15 | MTQTQSLALYTVAILVGALTGGSLPLLGRVGRSDIGLSFSAGVMLGAAFFHMLPEAVEESGAGILPFVLVGFLLLFLLERFVLVHVCAEPGPNARLSQAAPLPAGIEAGHGHDHHHHGHAHVATGGALALEDDGTGCAVHTTLGLAAFLGMSAHTLVDGFALGAASGQAELGLLVFLAILAHKIPNSFSLSAILRAEGYSRGRALAMNAVFALMVPVGAGIYLVLRELVRVETFTAAALAASAGTFLHLSLSDILPDLHRRGGSKWVLSGALLAGLAVMWGLRALNHAH | failed
16 | MEQLQVGQVTLTWLNGGVTHLDGGAMFGVVPKPLWSKKYPPNDQNQIELRTDPILVEAGGKRLLIESGIGNGKLTDKQKRNFGVTEESSLDESLAALGLTRGDIDIVIMTHLHFDHACGLTVWEDGRLVPAFPRAAIITSDVEWEEMRAPNIRSRNTYWKENWEPIAEQVIPFTKETEVVSGIRLIHTGGHSAGHAIVLIESDGEMAIHLGDLLGTHAHQNVLWVMAYDDYPMDSIFAKQRWLPYGIERNAWFTFYHDAYYRAVKWREDGTIAEQVKRNRPTLLEHHHHHH | not failed
17 | MRIYRTLTTYIARTYLTALVGATLVVGALLMLFDVIEITRRSGSKAIGIDVVLEMALYHLPMSLQSALPFVFMGGAVMIFWKLARSSELVVIRAAGLSVWQFLAPVIAVVVVLGIANVTLLNPLAAHLYTKYERMDAGMDSGVANPLALSDGGLWLRENNPEGQVVMHAQGVRQVDNALRMTGVTIFRYGPDRRFESRIDAETAGLREGALVLTSVVTTYPGRVGERAETLEVPSNLTLPKIQDSFSPPETVSFWELPAFITFFEAAGFSAHAHRLHWHSLIASPLLLIAMVLMGAVFSLKPSQRSVNWLFRIVGAVAAGFGVFFFSKITYTLGLSQTLPVNLAAWSPALVTTMVALAALFHLEDG | failed
18 | MVNQEKTLDVGFTHADFAALLDRYDYHFNPGDIVAGTVFSIEPKGALIDIGAKTAAYIPIQEMSINRIESPEEVLQPNETREFFILADENEEGQLTLSIRRIEYMRAWERVRQLQAEDATVRSQVFATNRGGALVRIEGLRGFIPGSHISTRVNKEELVGEELPLKFLEVDEERNRLVLSHRRALVERKMNKLEVGEVVVGTVRGIKPYGAFIDIGGVSGLLHISEISHDHIDTPHSVFNVNDQVKVMIIDLDAERGRISLSTKQLEPEPGDMVKNPQLVYEKAEEMAERYRQQLLQQQQQAAGETPEEGMEDIPEATEDDSPAPILQEALEHHHHHH | failed
19 | MRKDILYMLLLLLITDLSIIADIPVLRQSLPFIFFTIIPGYLLLGILKFKVELIDGSVIAAALSIFLMMMTGLIINSFYPLIMRPLSLLPILSAINLLIIALMVIYHLRGEEPLNLKASGNLSTALSSLLFPVLTVIGSYLMNKYSVNTVLLLVLLFIPVYIILLEVFKKKIGPATYPVAIFSISLSLLIMNGLPSNYLIGRDIHWEFYLFRKALMAHHWDMHVGSYNAYNACLSVTVLPVIYKVLLNVPEVYIFKFYYGFIGALMPLPVYLISERILKRSDYGFYATLLFIFQFSFIYILGWCRQLVALLFFAAAVMVLTGDMRRSHKKLLFVVFMVGTVLSHYTTAYVFFFLVALIPILVRVMKRLKVPDDSRGFFAASLAVLFFVVVFAWYAQATGAPFKSAVSFFTKTLRSMSEFFSADMRNNSELAVVGIGISNFPNLLSTLVHDTVFALIGAGALAVIFKEEYRQGREYLAAVILCMGILVAFIALPFVSKGYGGPRLFTQLLVILAPLFITGIDALTGFIGRVRWRIPSIIVLLILLFSCTTYLNYHFAGIPYSYAYDDGGERRYETFIYDNEVTGALWLSNHYNETSVIHGDKMIYSRIIYGFSTYPRVDREFFNGTDTETGGYVYLTHFNLYQRLVFLDYPLAPPRVVNGALKLDNVESINNYKDLIVNMSTIYDNGGSRVLIVA | failed
